Measurements reported in patent publication US20240226168A1.

Target: poliovirus receptor (PVR) (UniProt P15151)
Experiment: cell-based or functional assay

frequency of TNFα+ NK cells after A549 spheroid co-culture (isotype control) and restimulation with PVR+ K562 cells: 15%
loss in the IFNγ generation capacity of A549 spheroid-exposed PM21-NK cells: 30%
Sequence: T cell immunoreceptor with Ig and ITIM domains (TIGIT) (from UniProt Q495A1 22-244)
